B1: MweUPO-1 (Marasmius wettsteinii) (protein)
chain: SAHPWKAPGPNDSRGPCPGLNTLANHGFLPRNGRNISVPMIVKAGFEGYNVQSDILILAGKVGMLTSREADTISLEDLKLHGTIEHDASLSREDVAIGDNLHFNEAIFTTLANSNPGADVYNISSAAQVQHDRLADSVARNPNVTNTDLTATIRSSESAFYLTVMSAGDPLRGEAPKKFVNVFFQEERMPIKEGWKRSTTPINLPLLGPIIDRITELSDWKPTGDNCGAIVLGPGL

How the values were obtained:
[1] = molecular target: Recombinant unspecific peroxygenase MweUPO-1 from Marasmius wettsteinii (Marasmius wettsteinii); assay: crystal structure; deglycosylated (Endo H) MweUPO-1, 11 mg/mL in 50 mM sodium citrate pH 5.6; sitting-drop vapor diffusion at 18 °C, 10-20% (v/v) PEG 4000, 0.2 M (NH4)2SO4; space group P43212, two molecules per asymmetric unit
[2] = substrate: COc1ccc(CO)cc1OC; assay: purified protein; conditions: 2 mM H2O2; 100 mM potassium phosphate pH 5.0 per table footnote (methods section says phosphate pH 7.0)
[3] = substrate: CCn1c(=NN=c2sc3cc(S(=O)(=O)O)ccc3n2CC)sc2cc(S(=O)(=O)O)ccc21; assay: purified protein; conditions: 2 mM H2O2, 100 mM Britton-Robinson buffer pH 4.0 per table footnote (methods section says phosphate/citrate pH 4.0)
[4] = substrate: COc1cccc(OC)c1O; assay: purified protein; type: biochemical, Marasmius wettsteinii; conditions: 2 mM H2O2; 100 mM potassium phosphate pH 5.0 per table footnote (methods section says phosphate pH 6.0)

Row | Molecule | stoichiometry N [1] | Km [2] [µM] | kcat [2] [s⁻¹] | kcat/Km [2] [M⁻¹ s⁻¹] | Km [3] [µM] | kcat [3] [s⁻¹] | kcat/Km [3] [M⁻¹ s⁻¹] | Km [4] [µM] | kcat [4] [s⁻¹] | kcat/Km [4] [M⁻¹ s⁻¹]
1 | Recombinant unspecific peroxygenase MweUPO-1 from Marasmius wettsteinii (enzyme) | 2 |  |  |  |  |  |  |  |  | 
2 | B1 |  | 260 ± 80 | 22.5 ± 0.73 | 87600 | 30 ± 3 | 15.5 ± 0.68 | 534000 | 220 ± 1 | 61.6 ± 0.85 | 285000
